Drawing on article PMC10002499, this text covers Kd for nine substances.

Usually Kd stands for the concentration at which binding is half-saturated.

Assay [1] addresses dysferlin canonical C2A domain, construct 3 (aa 19-134) (Rattus norvegicus). The experiment in a line: SPR; Biacore 3000, 25 °C; His6 fusion ligand amine-coupled on a CM5 chip (dysferlin C2 domain as ligand, partner as analyte, per Figure 2 'ligand:analyte'); analyte typically 0–320 nM, including reversal of ligand and analyte; 1:1 Langmuir model; Ca2+ level of the KD values of Table 1 not given.

For assay [2], the target named is dysferlin C2F domain (Rattus norvegicus). The assay is described as above.
The target of assay [3] is annexin A2 (amino terminus) construct (rat). The assay can be described thus: SPR; 0 added Ca2+. The note with it: domain or fragment.
Assay [4] has the same target. The experiment in a line: SPR; 100 uM Ca2+. The note with it: domain or fragment.
Assay [5] has the same target. The experiment in a line: SPR; without Ca2+. Particulars: domain or fragment. A general note: Surface plasmon resonance follows binding to a sensor surface in real time, without labels.

dysferlin canonical C2A domain, construct 3 (aa 19-134) (Rattus norvegicus), sequence (Q9ESD7 other isoform, or with tags, fused parts or gaps): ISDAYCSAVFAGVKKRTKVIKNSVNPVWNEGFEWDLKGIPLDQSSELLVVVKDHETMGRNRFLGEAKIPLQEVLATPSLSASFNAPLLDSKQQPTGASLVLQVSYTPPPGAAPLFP
annexin A2 (amino terminus) construct (rat), sequence (Q07936 2-339): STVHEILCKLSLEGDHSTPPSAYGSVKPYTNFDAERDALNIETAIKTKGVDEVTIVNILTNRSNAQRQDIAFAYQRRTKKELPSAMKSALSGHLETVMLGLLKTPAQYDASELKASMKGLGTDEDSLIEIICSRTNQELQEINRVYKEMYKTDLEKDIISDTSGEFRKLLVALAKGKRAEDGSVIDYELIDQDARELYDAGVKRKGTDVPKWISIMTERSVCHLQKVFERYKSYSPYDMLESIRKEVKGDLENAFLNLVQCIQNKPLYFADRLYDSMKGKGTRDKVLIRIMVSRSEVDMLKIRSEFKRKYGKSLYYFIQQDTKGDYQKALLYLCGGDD
dysferlin C2F domain (Rattus norvegicus), sequence (Q9ESD7 1805-1953): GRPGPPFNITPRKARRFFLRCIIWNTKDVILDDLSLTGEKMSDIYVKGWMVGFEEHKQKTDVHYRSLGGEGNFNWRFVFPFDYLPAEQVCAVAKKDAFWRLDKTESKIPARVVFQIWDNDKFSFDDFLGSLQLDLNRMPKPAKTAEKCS
caveolin-3 construct (domain or fragment), sequence (P51638 whole entry, the tested form may be a part): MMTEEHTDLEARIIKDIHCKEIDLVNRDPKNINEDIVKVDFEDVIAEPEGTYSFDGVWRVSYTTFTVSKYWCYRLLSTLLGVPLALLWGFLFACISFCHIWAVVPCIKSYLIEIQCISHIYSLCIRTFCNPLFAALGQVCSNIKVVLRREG
calpain-3 construct (domain or fragment), sequence (P16259 whole entry, the tested form may be a part): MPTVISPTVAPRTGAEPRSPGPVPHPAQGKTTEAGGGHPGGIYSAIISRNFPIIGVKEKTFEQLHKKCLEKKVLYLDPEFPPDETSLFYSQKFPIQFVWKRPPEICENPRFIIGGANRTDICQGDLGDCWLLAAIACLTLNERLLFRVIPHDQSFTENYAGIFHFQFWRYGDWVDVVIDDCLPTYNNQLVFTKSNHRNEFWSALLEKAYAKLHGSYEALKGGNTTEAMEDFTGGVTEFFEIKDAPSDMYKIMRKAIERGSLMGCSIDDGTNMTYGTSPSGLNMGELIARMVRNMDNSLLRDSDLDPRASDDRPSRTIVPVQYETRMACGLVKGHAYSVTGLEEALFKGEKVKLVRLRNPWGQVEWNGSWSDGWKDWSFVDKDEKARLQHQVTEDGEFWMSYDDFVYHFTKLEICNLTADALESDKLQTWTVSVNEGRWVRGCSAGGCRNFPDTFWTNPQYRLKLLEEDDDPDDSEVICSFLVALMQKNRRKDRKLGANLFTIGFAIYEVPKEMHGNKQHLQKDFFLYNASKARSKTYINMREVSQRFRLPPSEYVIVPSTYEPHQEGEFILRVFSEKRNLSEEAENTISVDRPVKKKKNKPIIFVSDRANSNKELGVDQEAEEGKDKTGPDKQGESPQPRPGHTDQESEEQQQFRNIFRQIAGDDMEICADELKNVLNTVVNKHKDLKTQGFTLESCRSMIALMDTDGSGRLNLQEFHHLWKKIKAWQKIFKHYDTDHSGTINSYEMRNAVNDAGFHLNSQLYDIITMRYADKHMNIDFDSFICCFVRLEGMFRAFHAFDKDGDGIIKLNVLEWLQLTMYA
syntaxin-4 construct (domain or fragment), sequence (Q08850 whole entry, the tested form may be a part): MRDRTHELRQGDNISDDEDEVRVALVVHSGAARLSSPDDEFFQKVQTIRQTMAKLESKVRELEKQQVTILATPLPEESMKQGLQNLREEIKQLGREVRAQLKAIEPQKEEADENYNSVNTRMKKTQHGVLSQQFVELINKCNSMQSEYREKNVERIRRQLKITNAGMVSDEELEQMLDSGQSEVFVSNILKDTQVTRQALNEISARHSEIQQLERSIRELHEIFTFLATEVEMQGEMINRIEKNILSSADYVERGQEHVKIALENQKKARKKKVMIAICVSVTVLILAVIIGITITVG
annexin A1 construct (domain or fragment), sequence (P07150 2-346): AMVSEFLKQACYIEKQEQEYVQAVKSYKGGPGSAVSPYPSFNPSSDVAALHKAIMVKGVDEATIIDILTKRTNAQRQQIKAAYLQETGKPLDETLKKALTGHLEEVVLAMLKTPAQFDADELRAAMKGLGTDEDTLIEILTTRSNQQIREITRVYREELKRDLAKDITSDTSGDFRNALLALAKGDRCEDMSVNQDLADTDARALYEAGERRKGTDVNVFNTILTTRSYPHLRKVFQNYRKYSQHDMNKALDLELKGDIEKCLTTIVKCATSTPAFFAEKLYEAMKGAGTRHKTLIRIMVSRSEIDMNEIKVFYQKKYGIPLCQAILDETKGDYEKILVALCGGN
mitsugumin-53 construct (domain or fragment), sequence (A0JPQ4 whole entry, the tested form may be a part): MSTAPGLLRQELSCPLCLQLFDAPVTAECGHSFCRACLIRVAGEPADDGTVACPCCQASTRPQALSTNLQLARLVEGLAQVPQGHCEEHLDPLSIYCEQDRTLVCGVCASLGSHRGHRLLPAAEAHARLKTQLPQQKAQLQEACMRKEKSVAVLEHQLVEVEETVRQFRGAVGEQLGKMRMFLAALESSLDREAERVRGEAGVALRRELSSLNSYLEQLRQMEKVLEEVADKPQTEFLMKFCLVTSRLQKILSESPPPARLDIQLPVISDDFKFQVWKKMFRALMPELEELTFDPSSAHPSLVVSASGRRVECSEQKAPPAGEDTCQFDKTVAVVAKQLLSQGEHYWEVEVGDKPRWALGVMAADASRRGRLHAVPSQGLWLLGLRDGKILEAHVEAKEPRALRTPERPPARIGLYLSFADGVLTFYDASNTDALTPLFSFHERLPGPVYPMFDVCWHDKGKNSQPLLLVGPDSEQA

On to “AHNAK1 construct, the final 500 amino acids (domain or fragment)”, for which, in assay [1], the dissociation constant (Kd) was determined as 380 nM.

Regarding “caveolin-3 construct (domain or fragment)”, the Kd in assay [1] came out at 33 nM; in assay [2], 110 nM.

Consider “affixin (beta-parvin) construct (domain or fragment)”, for which the Kd is 41000 nM in assay [1] and 400 nM in assay [2].

As for “annexin A1 construct (domain or fragment)”, the Kd in assay [1] turned out to be 25 nM; in assay [2], 330 nM.

As to “dysferlin canonical C2A domain, construct 3 (aa 19-134)”, in assay [3], the Kd was 190 nM.

In the case of “mitsugumin-53 construct (domain or fragment)”, the Kd in assay [1] was 470 nM.

For the substance “syntaxin-4 construct (domain or fragment)”, the dissociation constant (Kd) in assay [1] came to 4400 nM; in assay [2], 130 nM.

As to “calpain-3 construct (domain or fragment)”, the Kd in assay [1] turned out to be 1200 nM; in assay [2] it was 2.2 nM.

For “dysferlin canonical C2A domain, construct 1 (aa 1-152 plus 24 aa)”, the Kd in assay [4] was 23.6 nM; in assay [5], 101 nM.
